Here are results for 1 protein from publication PMC11228984.

The data set is described as follows: expression and purification from insect cells. To be noted: glycan lost; control: unmutated TREK2 construct.

B1: TREK2: N144Q (protein)
parent chain: MFFLYTDFFLSLVAVPAAAPVCQPKSATNGQPPAPAPTPTPRLSISSRATVVARMEGTSQGGLQTVMKWKTVVAIFVVVVVYLVTGGLVFRALEQPFESSQKNTIALEKAEFLRDHVCVSPQELETLIQHALDADNAGVSPIGNSSNNSSHWDLGSAFFFAGTVITTIGYGNIAPSTEGGKIFCILYAIFGIPLFGFLLAGIGDQLGTIFGKSIARVEKVFRKKQVSQTKIRVISTILFILAGCIVFVTIPAVIFKYIEGWTALESIYFVVVTLTTVGFGDFVAGGNAGINYREWYKPLVWFWILVGLAYFAAVLSMIGDWLRVLSKKTKEEVGEIKAHAAEWKANVTAEFRETRRRLSVEIHDKLQRAATIRSMERRRLGLDQRAHSLDMLSPEKRSVFAALDTGRFKASSQESINNRPNNLRLKGPEQLNKHGQGASEDNIINKFGSTSRLTKRKNKDLKKTLPEDVQKIYKTFRNYSLDEEKKEEETEKMCNSDNSSTAMLTDCIQQHAELENGMIPTDTKDREPENNSLLEDRN
Consider B1, for which the expression_or_secretion entry is “no change”.
